Biological target: T1, mthSBDS (Methanothermobacter thermautotrophicus, UniProt O26781 1-232, R175M)
T1 sequence: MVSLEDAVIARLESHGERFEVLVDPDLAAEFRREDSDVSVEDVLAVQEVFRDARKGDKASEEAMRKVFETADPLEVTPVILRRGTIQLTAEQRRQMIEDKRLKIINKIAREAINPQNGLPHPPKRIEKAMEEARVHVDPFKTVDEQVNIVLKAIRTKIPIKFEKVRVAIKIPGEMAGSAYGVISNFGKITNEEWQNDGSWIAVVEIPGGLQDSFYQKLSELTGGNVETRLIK
Experiment: EMSA; SPR: 10 mM HEPES pH 7.5, 150 mM NaCl, 5 uM EDTA, 0.05% P20, +/- 5 mM MgCl2, temperature not stated; SELEX: 25 mM Tris pH 7.5, 0.5 M NaCl; EMSA: protein 1e-12 to 1e-4 M, buffer not stated
Settings: protein: recombinant; tags: N-terminal 19-aa extension with His6 (pET28a)

AAAAAAAAAAAAAAAAAAAAAAAAAAAAAA (ssRNA) [30-base poly(A) RNA]: no binding.

— paper PMC2695463, “Conformational flexibility and molecular interactions of an archaeal homologue of the Shwachman-Bodian-Diamond syndrome protein”
